Experiment [1] addresses T1, porcine CD163, membrane-bound form on porcine pulmonary alveolar macrophage (pPAM) WT cells (porcine, UniProt Q2VL90 47-1115).
T1 construct: Native CD163 on primary cells; also called membrane CD163; cell-surface CD163
T1 sequence: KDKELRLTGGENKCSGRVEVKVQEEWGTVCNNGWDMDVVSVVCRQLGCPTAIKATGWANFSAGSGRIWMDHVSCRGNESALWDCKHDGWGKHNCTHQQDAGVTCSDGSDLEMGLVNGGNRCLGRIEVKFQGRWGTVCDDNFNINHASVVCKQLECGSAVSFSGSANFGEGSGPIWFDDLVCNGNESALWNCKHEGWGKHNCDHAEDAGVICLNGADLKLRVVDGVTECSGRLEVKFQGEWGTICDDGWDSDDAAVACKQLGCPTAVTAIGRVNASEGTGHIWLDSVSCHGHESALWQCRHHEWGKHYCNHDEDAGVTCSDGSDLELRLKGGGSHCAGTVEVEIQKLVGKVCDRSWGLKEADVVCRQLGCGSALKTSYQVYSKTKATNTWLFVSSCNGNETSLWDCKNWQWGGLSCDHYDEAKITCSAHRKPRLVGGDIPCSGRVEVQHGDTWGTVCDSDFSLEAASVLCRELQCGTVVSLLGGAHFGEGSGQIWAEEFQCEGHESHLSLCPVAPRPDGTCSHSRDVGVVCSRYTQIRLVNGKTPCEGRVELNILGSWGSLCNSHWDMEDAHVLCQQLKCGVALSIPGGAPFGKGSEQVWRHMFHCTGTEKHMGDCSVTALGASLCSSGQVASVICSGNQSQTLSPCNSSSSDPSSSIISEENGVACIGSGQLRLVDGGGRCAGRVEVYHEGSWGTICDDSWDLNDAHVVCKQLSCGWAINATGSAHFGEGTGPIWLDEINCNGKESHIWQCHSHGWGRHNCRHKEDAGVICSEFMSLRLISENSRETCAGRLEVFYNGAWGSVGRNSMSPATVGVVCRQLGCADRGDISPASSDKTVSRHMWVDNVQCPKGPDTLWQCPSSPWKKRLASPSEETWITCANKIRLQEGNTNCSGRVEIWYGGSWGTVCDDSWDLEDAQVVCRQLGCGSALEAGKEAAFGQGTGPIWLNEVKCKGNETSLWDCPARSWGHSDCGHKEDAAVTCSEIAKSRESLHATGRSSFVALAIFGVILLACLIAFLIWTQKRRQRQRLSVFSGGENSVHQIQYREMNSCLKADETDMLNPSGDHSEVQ
Description: dose-response FACS on pPAM WT cells, anti-FLAG-biotin and streptavidin R-PE detection. As to the method:
Biparatopic and triparatopic antibody constructs in PBS (pH7.4) were diluted in a 3-fold serial dilutions from 150 nM down to 0.023 nM in FACS buffer (0.5% FBS, 0.5 mM EDTA in 1×PBS pH7.4). Biparatopic and triparatopic candidates were incubated with anti-FLAG-Biotin (Sigma, Cat. nr. F9291), for 30 min on ice with shaking. This mixture was added to pPAM WT cells and incubated for 60 min on ice with gentle shaking. Cells were washed 3×with 150 μl/well of FACS buffer and incubated with 50 μl/well of the secondary detection reagent Streptavidin R-P.E. conjugate antibody (Invitrogen, Cat. nr. SA10044) for 30 min on ice with shaking and protected from light. Cells were then washed 3× with 150 μl/well of FACS Buffer and resuspended in 50 μl/well of FACS buffer to be measured on a FACS machine (Attune™ N×T), and a total of 10000 cells were acquired per sample.

In experiment [2] the target is T1, porcine CD163, membrane-bound form on …. The experiment can be described thus: cell-based or functional assay.
For experiment [3] the target is unchanged. Description: cell-based or functional assay. This is another data set of the same source.

As a reminder, the EC50 is the concentration giving half of the maximal effect. Read a low EC50 as a more potent agent.

B1: 17B11 + 03D03 + 03E11 2(G4S) triparatopic VHH construct (bispecific antibody)
chain: QVQLVESGGGLVQAGGSLRLSCAASGRTFSSYAMGWFRQTPGKDREFVARIGWTGGTTIYADSVKGRFTISRDNAKNTVYLQMNSLKPEDTAVYYCAADQAGWRTAGVRNTYEYDYWGQGTQVTVSSGGGGSGGGGSQLQLVESGGGLVQPGGSLRLSCAASGFTLDDYTIGWFRQAPGKEREGVSCINSITSNTYYADSVKGRFTISRDNAKNTVYLQMNSLTAEDTAIYYCAADSGLFSGSSCLKYRAMRFGSWGQGTQVTVSSGGGGSGGGGSQVQLQESGGGLVQVGSSLRLSCVTSGRTPSRYVMGWFRQAPGQEREFVAAISWSGRAPYADSVKGRFTISRDNAKNTVYLQMNSLKPEDTGVYYCAGGEGAIKWTTLDAYDYWGQGTQVTVSS
notes: Triparatopic; not shown: FLAG and His tags
As for B1, the response in experiment [1] was half-maximal at 8 nM (EC50).

B2: 03E11 + 17B11 5(G4S) biparatopic VHH construct (bispecific antibody)
chain: QVQLQESGGGLVQVGSSLRLSCVTSGRTPSRYVMGWFRQAPGQEREFVAAISWSGRAPYADSVKGRFTISRDNAKNTVYLQMNSLKPEDTGVYYCAGGEGAIKWTTLDAYDYWGQGTQVTVSSGGGGSGGGGSGGGGSGGGGSGGGGSQVQLVESGGGLVQAGGSLRLSCAASGRTFSSYAMGWFRQTPGKDREFVARIGWTGGTTIYADSVKGRFTISRDNAKNTVYLQMNSLKPEDTAVYYCAADQAGWRTAGVRNTYEYDYWGQGTQVTVSS
notes: Biparatopic; not shown: FLAG and His tags
B2 registered an EC50 in experiment [1] of 8.4 nM.

B3: 17B11 + 03D03 5(G4S) biparatopic VHH construct (bispecific antibody)
chain: QVQLVESGGGLVQAGGSLRLSCAASGRTFSSYAMGWFRQTPGKDREFVARIGWTGGTTIYADSVKGRFTISRDNAKNTVYLQMNSLKPEDTAVYYCAADQAGWRTAGVRNTYEYDYWGQGTQVTVSSGGGGSGGGGSGGGGSGGGGSGGGGSQLQLVESGGGLVQPGGSLRLSCAASGFTLDDYTIGWFRQAPGKEREGVSCINSITSNTYYADSVKGRFTISRDNAKNTVYLQMNSLTAEDTAIYYCAADSGLFSGSSCLKYRAMRFGSWGQGTQVTVSS
notes: as for B2
Consider B3, for which a half-maximal effect in experiment [1] (EC50) was put at 6.6 nM.

B4: 03E11 + 03D03 5(G4S) biparatopic VHH construct (bispecific antibody)
chain: QVQLQESGGGLVQVGSSLRLSCVTSGRTPSRYVMGWFRQAPGQEREFVAAISWSGRAPYADSVKGRFTISRDNAKNTVYLQMNSLKPEDTGVYYCAGGEGAIKWTTLDAYDYWGQGTQVTVSSGGGGSGGGGSGGGGSGGGGSGGGGSQLQLVESGGGLVQPGGSLRLSCAASGFTLDDYTIGWFRQAPGKEREGVSCINSITSNTYYADSVKGRFTISRDNAKNTVYLQMNSLTAEDTAIYYCAADSGLFSGSSCLKYRAMRFGSWGQGTQVTVSS
notes: as for B2
In experiment [1], B4 displayed an EC50 of 6.5 nM.

B5: 03E11 + 03D03 2(G4S) biparatopic VHH construct (bispecific antibody)
chain: QVQLQESGGGLVQVGSSLRLSCVTSGRTPSRYVMGWFRQAPGQEREFVAAISWSGRAPYADSVKGRFTISRDNAKNTVYLQMNSLKPEDTGVYYCAGGEGAIKWTTLDAYDYWGQGTQVTVSSGGGGSGGGGSQLQLVESGGGLVQPGGSLRLSCAASGFTLDDYTIGWFRQAPGKEREGVSCINSITSNTYYADSVKGRFTISRDNAKNTVYLQMNSLTAEDTAIYYCAADSGLFSGSSCLKYRAMRFGSWGQGTQVTVSS
notes: Biparatopic: two anti-porcine CD163 VHHs in one chain; also called 19-17; 03D03+03E11; not shown: FLAG and His tags
B5 had an EC50 in experiment [1] of 8.4 nM.

B6: 03D03 + 17B11 + 03E11 2(G4S) triparatopic VHH construct (bispecific antibody)
chain: QLQLVESGGGLVQPGGSLRLSCAASGFTLDDYTIGWFRQAPGKEREGVSCINSITSNTYYADSVKGRFTISRDNAKNTVYLQMNSLTAEDTAIYYCAADSGLFSGSSCLKYRAMRFGSWGQGTQVTVSSGGGGSGGGGSQVQLVESGGGLVQAGGSLRLSCAASGRTFSSYAMGWFRQTPGKDREFVARIGWTGGTTIYADSVKGRFTISRDNAKNTVYLQMNSLKPEDTAVYYCAADQAGWRTAGVRNTYEYDYWGQGTQVTVSSGGGGSGGGGSQVQLQESGGGLVQVGSSLRLSCVTSGRTPSRYVMGWFRQAPGQEREFVAAISWSGRAPYADSVKGRFTISRDNAKNTVYLQMNSLKPEDTGVYYCAGGEGAIKWTTLDAYDYWGQGTQVTVSS
notes: as for B1
In turn, B6 displayed an EC50 in experiment [1] of 13.6 nM.

B7: 03E11 + 17B11 2(G4S) biparatopic VHH construct (bispecific antibody)
chain: QVQLQESGGGLVQVGSSLRLSCVTSGRTPSRYVMGWFRQAPGQEREFVAAISWSGRAPYADSVKGRFTISRDNAKNTVYLQMNSLKPEDTGVYYCAGGEGAIKWTTLDAYDYWGQGTQVTVSSGGGGSGGGGSQVQLVESGGGLVQAGGSLRLSCAASGRTFSSYAMGWFRQTPGKDREFVARIGWTGGTTIYADSVKGRFTISRDNAKNTVYLQMNSLKPEDTAVYYCAADQAGWRTAGVRNTYEYDYWGQGTQVTVSS
notes: as for B2
On to B7, for which the EC50 in experiment [1] was determined as 6.8 nM.

B8: 03D03 + 03E11 + 17B11 2(G4S) triparatopic VHH construct (bispecific antibody)
chain: QLQLVESGGGLVQPGGSLRLSCAASGFTLDDYTIGWFRQAPGKEREGVSCINSITSNTYYADSVKGRFTISRDNAKNTVYLQMNSLTAEDTAIYYCAADSGLFSGSSCLKYRAMRFGSWGQGTQVTVSSGGGGSGGGGSQVQLQESGGGLVQVGSSLRLSCVTSGRTPSRYVMGWFRQAPGQEREFVAAISWSGRAPYADSVKGRFTISRDNAKNTVYLQMNSLKPEDTGVYYCAGGEGAIKWTTLDAYDYWGQGTQVTVSSGGGGSGGGGSQVQLVESGGGLVQAGGSLRLSCAASGRTFSSYAMGWFRQTPGKDREFVARIGWTGGTTIYADSVKGRFTISRDNAKNTVYLQMNSLKPEDTAVYYCAADQAGWRTAGVRNTYEYDYWGQGTQVTVSS
notes: as for B1
B8: the midpoint of the response in experiment [1], the EC50, lay at 3.8 nM.

B9: 03E11 + 03D03 + 17B11 2(G4S) triparatopic VHH construct (bispecific antibody)
chain: QVQLQESGGGLVQVGSSLRLSCVTSGRTPSRYVMGWFRQAPGQEREFVAAISWSGRAPYADSVKGRFTISRDNAKNTVYLQMNSLKPEDTGVYYCAGGEGAIKWTTLDAYDYWGQGTQVTVSSGGGGSGGGGSQLQLVESGGGLVQPGGSLRLSCAASGFTLDDYTIGWFRQAPGKEREGVSCINSITSNTYYADSVKGRFTISRDNAKNTVYLQMNSLTAEDTAIYYCAADSGLFSGSSCLKYRAMRFGSWGQGTQVTVSSGGGGSGGGGSQVQLVESGGGLVQAGGSLRLSCAASGRTFSSYAMGWFRQTPGKDREFVARIGWTGGTTIYADSVKGRFTISRDNAKNTVYLQMNSLKPEDTAVYYCAADQAGWRTAGVRNTYEYDYWGQGTQVTVSS
notes: Triparatopic: three anti-porcine CD163 VHHs in one chain; also called Tri-2; Tri2; not shown: FLAG and His tags
B9: in experiment [2], the “IC50, PRRSV1 LT3 infection assay, high CD163 porcine serum” value worked out at 2.96 nM and the “IC50, PRRSV1 LT3 infection assay, low CD163 porcine serum” value is 2.81 nM. Also, in experiment [3], the “IC50, PRRSV2 strain MN184 infection assay, 10% FBS” value turned out to be 2.13 nM; the “IC50, PRRSV2 strain NA174 infection assay, high CD163 porcine serum” value worked out at 5.01 nM; the “IC50, PRRSV2 strain NA174 infection assay, low CD163 porcine serum” value amounted to 4.99 nM. In experiment [1], this molecule registered an EC50 of 9.1 nM.

B10: 17B11 + 03D03 2(G4S) biparatopic VHH construct (bispecific antibody)
chain: QVQLVESGGGLVQAGGSLRLSCAASGRTFSSYAMGWFRQTPGKDREFVARIGWTGGTTIYADSVKGRFTISRDNAKNTVYLQMNSLKPEDTAVYYCAADQAGWRTAGVRNTYEYDYWGQGTQVTVSSGGGGSGGGGSQLQLVESGGGLVQPGGSLRLSCAASGFTLDDYTIGWFRQAPGKEREGVSCINSITSNTYYADSVKGRFTISRDNAKNTVYLQMNSLTAEDTAIYYCAADSGLFSGSSCLKYRAMRFGSWGQGTQVTVSS
notes: as for B2
With B10, the EC50 in experiment [1] turned out to be 6.6 nM.

B11: 03E11 + 17B11 + 03D03 2(G4S) triparatopic VHH construct (bispecific antibody)
chain: QVQLQESGGGLVQVGSSLRLSCVTSGRTPSRYVMGWFRQAPGQEREFVAAISWSGRAPYADSVKGRFTISRDNAKNTVYLQMNSLKPEDTGVYYCAGGEGAIKWTTLDAYDYWGQGTQVTVSSGGGGSGGGGSQVQLVESGGGLVQAGGSLRLSCAASGRTFSSYAMGWFRQTPGKDREFVARIGWTGGTTIYADSVKGRFTISRDNAKNTVYLQMNSLKPEDTAVYYCAADQAGWRTAGVRNTYEYDYWGQGTQVTVSSGGGGSGGGGSQLQLVESGGGLVQPGGSLRLSCAASGFTLDDYTIGWFRQAPGKEREGVSCINSITSNTYYADSVKGRFTISRDNAKNTVYLQMNSLTAEDTAIYYCAADSGLFSGSSCLKYRAMRFGSWGQGTQVTVSS
notes: as for B1
Take B11: the EC50 in experiment [1] turned out to be 18.2 nM.
